Test results: article PMC5849714, “Direct coupling of detergent purified human mGlu5 receptor to the heterotrimeric G proteins Gq and Gs” (Scientific Reports, 2018)

Tests used:
[1] = molecular target: mGlu5-Δ856 (construct for large-scale purification, devoid of eGFP) (human) (UniProt P41594)
[2] = molecular target: mGlu5-Δ856 (construct for large-scale purification, devoid of eGFP) (human) (UniProt P41594); assay: SEC; purified receptor on Superose 6 increase in MNG3/CHS

Sequence of Gαqβ1γ2 (P50148 whole entry): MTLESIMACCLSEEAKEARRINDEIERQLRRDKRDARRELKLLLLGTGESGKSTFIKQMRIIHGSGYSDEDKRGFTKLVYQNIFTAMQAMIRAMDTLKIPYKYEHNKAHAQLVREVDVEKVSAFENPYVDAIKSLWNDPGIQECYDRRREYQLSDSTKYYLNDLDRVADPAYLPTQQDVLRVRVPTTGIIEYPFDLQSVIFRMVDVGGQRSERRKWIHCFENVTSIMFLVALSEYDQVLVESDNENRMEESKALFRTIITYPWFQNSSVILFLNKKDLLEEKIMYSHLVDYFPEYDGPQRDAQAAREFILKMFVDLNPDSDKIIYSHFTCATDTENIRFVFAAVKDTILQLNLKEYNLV
Sequence of Gαqβ1γ2 (P62873 whole entry): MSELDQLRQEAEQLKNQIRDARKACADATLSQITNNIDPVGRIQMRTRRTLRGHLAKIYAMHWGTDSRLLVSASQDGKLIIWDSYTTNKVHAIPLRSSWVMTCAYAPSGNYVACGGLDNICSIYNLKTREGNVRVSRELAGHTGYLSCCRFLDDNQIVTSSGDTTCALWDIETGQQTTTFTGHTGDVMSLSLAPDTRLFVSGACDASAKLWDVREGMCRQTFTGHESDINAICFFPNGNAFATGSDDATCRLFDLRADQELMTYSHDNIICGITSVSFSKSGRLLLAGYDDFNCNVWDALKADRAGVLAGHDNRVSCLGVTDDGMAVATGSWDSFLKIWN
Sequence of Gαqβ1γ2 (P59768 whole entry): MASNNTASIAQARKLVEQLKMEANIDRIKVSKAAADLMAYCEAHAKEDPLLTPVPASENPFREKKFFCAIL

Bodipy-FL GTPγS fluorescence, purified receptor in detergent, glutamate and VU0424465 together: increase of the maximum response [1]	stoichiometry N [2]	Substance
30%		Gαqβ1γ2 (from UniProt P50148 1-359; P62873 1-340; P59768 1-71) (complex)
	2	mGlu5-Δ856 (construct for large-scale purification, devoid of eGFP) (from UniProt P41594-2 21-856) (receptor)
